Assay results: article PMC12470938

Molecular target: T1, Rme1 (Trichoderma reesei) (UniProt G0RR27)
T1 sequence: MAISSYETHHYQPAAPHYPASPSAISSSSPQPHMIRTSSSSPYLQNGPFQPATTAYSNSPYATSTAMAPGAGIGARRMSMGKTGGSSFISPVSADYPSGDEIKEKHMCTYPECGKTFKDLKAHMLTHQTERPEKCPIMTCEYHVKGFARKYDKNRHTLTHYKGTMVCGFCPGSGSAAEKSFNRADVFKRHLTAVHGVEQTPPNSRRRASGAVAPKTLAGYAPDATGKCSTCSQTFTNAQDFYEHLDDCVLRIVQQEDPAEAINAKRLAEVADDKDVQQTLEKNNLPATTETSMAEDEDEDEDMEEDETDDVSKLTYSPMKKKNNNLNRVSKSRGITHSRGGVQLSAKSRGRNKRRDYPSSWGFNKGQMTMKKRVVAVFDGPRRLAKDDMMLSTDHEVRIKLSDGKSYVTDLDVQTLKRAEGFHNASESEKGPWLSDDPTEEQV
Assay: EMSA
Details: 20 mM Tris-HCl pH 7.4, 50 mM KCl, 5% glycerol, 1 mM DTT, 50 µg/mL BSA, 50 µM zinc sulfate; 100 ng probe, 25 min at room temperature; 6% native PAGE at 4 °C

AGCAGCAGCGGCAATAACAAATACAGTAACAAATGGGGACCAGAATGCGAATTTGAAACGACAGGAACGAACACGGAGGAGGGGGCGGGGGTTGGCACGTTGGCTAAAGAATATTTCTACCTATCCACAGATGTAGC (double strand) [Pswo probe]
binding: no binding
